Source: FireProtDB (doi:10.1016/0022-2836(74)90188-0)

Settings: Bos taurus, Thermal, DSC, glycine 0.04 M, reversible: yes(>90%)

Chain of Cytochrome c wild type, P62894 (P62894 whole entry): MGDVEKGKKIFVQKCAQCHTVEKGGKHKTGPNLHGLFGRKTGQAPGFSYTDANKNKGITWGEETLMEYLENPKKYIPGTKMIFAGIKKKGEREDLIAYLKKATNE

Cytochrome c wild type, P62894
Tm (pH 2.81): 52.5 °C | unfolding enthalpy (calorimetric) (pH 2.81): 60 kcal/mol | Tm (pH 2.92): 54 °C | heat capacity change of unfolding (pH 2.92): 1.43 kcal/mol/K | unfolding enthalpy (calorimetric) (pH 2.92): 65 kcal/mol | Tm (pH 3.05): 59 °C | heat capacity change of unfolding (pH 3.05): 1.48 kcal/mol/K | unfolding enthalpy (calorimetric) (pH 3.05): 70.3 kcal/mol | Tm (pH 3.12): 61 °C | heat capacity change of unfolding (pH 3.12): 1.53 kcal/mol/K | unfolding enthalpy (calorimetric) (pH 3.12): 74.3 kcal/mol | Tm (pH 3.18): 62 °C | heat capacity change of unfolding (pH 3.18): 1.36 kcal/mol/K | unfolding enthalpy (calorimetric) (pH 3.18): 77 kcal/mol | Tm (pH 3.4): 66 °C | heat capacity change of unfolding (pH 3.4): 1.48 kcal/mol/K | unfolding enthalpy (calorimetric) (pH 3.4): 84.6 kcal/mol | Tm (pH 3.75): 70 °C | heat capacity change of unfolding (pH 3.75): 1.7 kcal/mol/K | unfolding enthalpy (calorimetric) (pH 3.75): 93.5 kcal/mol | Tm (pH 3.94): 72 °C | heat capacity change of unfolding (pH 3.94): 1.65 kcal/mol/K | unfolding enthalpy (calorimetric) (pH 3.94): 96.3 kcal/mol | Tm (pH 4.52): 77 °C | heat capacity change of unfolding (pH 4.52): 1.48 kcal/mol/K | unfolding enthalpy (calorimetric) (pH 4.52): 103 kcal/mol | Tm (pH 4.83): 78 °C | heat capacity change of unfolding (pH 4.83): 1.53 kcal/mol/K | unfolding enthalpy (calorimetric) (pH 4.83): 107 kcal/mol
